# According to patent US20080193450A1 (ISTITUTO SUPERIORE DI SANITA, published 2008):
# Target: native, highly purified SAP2 preparation (Candida albicans, UniProt P0CS83 57-398)
# Assay: cell-based or functional assay
# Sequence of native, highly purified SAP2 preparation (P0CS83 57-398 limits assumed): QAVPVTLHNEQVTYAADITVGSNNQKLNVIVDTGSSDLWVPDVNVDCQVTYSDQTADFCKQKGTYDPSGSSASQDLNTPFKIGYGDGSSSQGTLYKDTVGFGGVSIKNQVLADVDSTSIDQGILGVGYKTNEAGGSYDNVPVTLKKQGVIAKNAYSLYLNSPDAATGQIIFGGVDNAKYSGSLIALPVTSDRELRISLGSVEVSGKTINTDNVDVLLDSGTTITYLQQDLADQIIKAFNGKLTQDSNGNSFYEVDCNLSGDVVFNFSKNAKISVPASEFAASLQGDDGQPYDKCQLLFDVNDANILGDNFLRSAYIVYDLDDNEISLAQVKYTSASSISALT
Molecule,"% Inhibition (BSA degradation, proteinase enzyme assay) [%]","ΔOD/ml/min (BSA degradation, proteinase enzyme assay)"
pepstatin A (peptide),100,0.36 ΔOD/ml/min
ADR4-8 (other) EVQLLESGGGLVQPGGSLRLSCAASGFSLSYKVMGWVRQAPGKGLEWVSAINRENGSTYYADSVKGRFTISRDNSKNTLYLQMNSLRAEDTAVYYCAGFARRGAPHSASVEFWGQGTLVTVSS,0,1 ΔOD/ml/min
ADR4-13 (other) EVQLLESGGGLVQPGGSLRLSCAASGFSISYKNMAWVRQAPGKGLEWVSAIKAANGSTYYADSVKGRFTISRDNSKNTLYLQMNSLRAEDTAVYYCATGSQKKRTYTFDFWGQGTLVTVSS,82,0.46 ΔOD/ml/min
ADR4-12 (other) EVQLLESGGGLVQPGGSLRLSCAASGDTVSSKAMAWVRQAPGKGLEWVSGIFIPNGSTYYADSVKGRFTISRDNSKNTLYLQMNSLRAEDTAVYYCAAKQRAVLSRWGSSTEFGSWGQGTLVTVSS,60,0.6 ΔOD/ml/min
ADR4-3 (other) EVQLLESGGGLVQPGGSLRLSCAASGFTFAQYRMAWVRQAPGKGLEWVSQINAQGTQTGYADSVKGRFTISRDNSKNTLYLQMNSLRAEDTAVYYCAKWVGGARYTFDYWGQGTLVTVSS,40,0.66 ΔOD/ml/min
ADR4-11 (other) EVQLLESGGGLVQPGGSLRLSCAASGVIFTDQTMGWVRQAPGKGLEWVSAIKTRDGSTYYADSVKGRFTISRDNSKNTLYLQMNSLRAEDTAVYYCARFLRPNASRGSAREAQIHSWGQGTLVTVSS,29,0.8 ΔOD/ml/min
ADR4-9 (other) EVQLLESGGGLVQPGGSLRLSCAASGVRLSHQVMGWVRQAPGKGLEWVSAIRSSDGSTYYADSVKGRFTISRDNSKNTLYLQMNSLRAEDTAVYYCAGWRSAKSQMHYWGQGTLVTVSS,5,0.93 ΔOD/ml/min
ADR4-7 (other) EVQLLESGGGLVQPGGSLRLSCAASGYSVTYQNMAWVRQAPGKGLEWVSTITVPNGSTYYADSVKGRFTISRDNSKNTLYLQMNSLRAEDTAVYYCAGLGEVLRDGNANVQFWGQGTLVTVSS,61,0.7 ΔOD/ml/min
ADR4-6 (other) EVQLLESGGGLVQPGGSLRLSCAASGFRVSNYDLTWVRQAPGKGLEWVSTISATNGSTYYADSVKGRFTISRDNSKNTLYLQMNSLRAEDTAVYYCAAVTWWLLRHNDNLGFWGQGTLVTVSS,78,0.5 ΔOD/ml/min
ADR4-10 (other) EVQLLESGGGLVQPGGSLRLSCAASGVSVSAYTMSWVRQAPGKGLEWVSAILKKNGSTYYADSVKGRFTISRDNSKNTLYLQMNSLRAEDTAVYYCAGRPSVTFGGPGKRYDYHFQYWGQGTLVTVSS,13,0.83 ΔOD/ml/min
ADR4-4 (other) EVQLLESGGGLVQPGGSLRLSCAASGFTFLDYQMSWVRQAPGKGLEWVSGISRSGNKTKYADSVKGRFTISRDNSKNTLYLQMNSLRAEDTAVYYCAKWAGLNRHDFDYWGQGTLVTVSS,32,0.76 ΔOD/ml/min
ADR4-5 (other) EVQLLESGGGLVQPGGSLRLSCAASGDRISSEFMGWVRQAPGKGLEWVSAIYKPNGSTYYADSVKGRFTISRDNSKNTLYLQMNSLRAEDTAVYYCARGRARRTESTYQLRYWGQGTLVTVSS,0,1 ΔOD/ml/min
